Experimental data: the supplement of paper PMC10567573

B1: SLC22A15 (parent)
chain: IAQYALLGYFIRSWRTLAILVNLQ
B2: RSPH3 (parent)
chain: KAASLARNLAKRRRTYLGGAAGRS

Variants of: B1
Experiment: protein stability index of a GFP-peptide fusion (GPS, HEK-293T) (PSI 1-6); higher = more stable
Conditions: c terminus: a fixed tail appended
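Also: lentivirally expressed fusions sorted by FACS into six bins by GFP to DsRed ratio, PSI derived from sequencing read proportions per bin multiplied by bin number.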

Protein stability index, by site and new letter:
W14: K 1.79; H 4.19; Q 3.34; F 2.86; R 2.52; G 3.14; I 3.04; C 4; T 2.6; E 1.91; L 3.89; D 2.61; Y 3.53; N 3.47; M 2.62; V 2.46; P 3.8
Q3: D 2.29; R 4.63; G 3.38; L 3.15; A 3.14; H 2.13; C 3.46; K 1.96; V 4.91
S13: L 4.37; M 3.12; A 2.29; H 3.68; R 3.53; G 2.4; N 2.56; I 3.82; D 3.34; Y 2.3; P 2; C 3.26; F 2.29; K 1.4; Q 2.61; W 2.3; V 2.11; T 3.14
Y4: F 3.81; I 1.57; E 3.39; Q 2.44; P 4.01; C 3.29; W 2.78; N 4.26; A 3
R15: W 3.4; C 2.86; S 2; T 4.03; H 2.65; K 3.15; G 4.28; I 3.23; D 4.08; Y 2.65; A 2.1; V 2.88; E 1.81; M 2.18; N 3.78; F 3.18; Q 2.52; L 2.95
L6: I 3.23; Q 2.46; P 2.95; F 2.34; S 2.22; N 2.26; K 2.31; R 4.15; E 2.55; G 4.36; Y 2.49; M 3.42; H 1.67; T 4.1
L7: N 3.3; W 2.78; M 2.97; Y 2.5; D 2.67; S 3.26; I 1.71; C 3.99; Q 2.52
A5: E 1.82; S 2.48; R 2.33; G 3.8; K 2.1; I 2.52
G8: Q 3.07; V 2.97; L 1.88; M 3.1; Y 1.76; K 1.71; H 2.21; F 2.71; S 3.52; I 3.12; C 2.42; P 1.82; E 1.83; N 1.67
R12: M 2.98; E 3.81; K 2.95; D 1.86; C 2.67; Q 1.93; G 2.97; L 2.94; W 2.88; V 2.34; I 3.48; S 3.61; T 1.97; Y 3.46; H 2.5; N 2.27; P 2.67; F 3.61
I11: C 2.6; M 2.89; T 3.02; L 2.34; E 1.63; H 2.63; R 2.37; N 2.32; D 3.1; Q 2.14; Y 2.72; S 2.68; P 2.1; V 2.88; A 2.96; F 3.45; K 3.38
F10: G 1.67; T 4.13; H 3.27; V 3.1; E 4.46; Q 3.4; C 2.86; I 4.57; A 3.58; L 3.4; P 2.24; K 2.44
Y9: N 2.22; K 1.29; W 2.92; I 2.71; G 3.34; E 2.03; D 2.57; A 1.47; C 2.75; Q 4.48
T16: G 2.8; C 4.17; E 2.07; K 1.98; D 1.58; A 3.28; H 3.46; I 4.01
A2: K 2.18; F 1.95; I 3.22; G 2.41; M 3.88; P 4.19; N 4.69; R 3.65; S 2.1; T 3.18; H 2.48; V 2.88; E 2.65
I1: V 2.17; P 1.52; N 4.39; D 2.92

Variants of: B2
Experiment: as above
Conditions: c terminus: a fixed tail appended

Protein stability index: each site, then its substitutions
G18: F 1.78; Y 3.11; T 1.97; E 2.45; V 2.36; I 2.86; H 3.07; L 2.32; K 2.35; M 2.5; S 1.69; A 2.25
T15: M 3.14; V 1.91; F 2.31; Y 1.29; D 2.17; H 2.09
G22: H 1.44; L 2.42; D 2.03; K 2.05; N 3.29; W 1.44; Y 2; F 2.17
S24: P 1.83; F 1.94; L 2.04; I 3.4; C 2.11; K 2; Q 3.37; H 2.41; M 2.2; A 2.7; N 1.85; R 2.32; D 3.31; E 2.01
R14: C 2.96; S 3.11; E 2.66; D 1.41; G 1.73; F 1.02; N 1.99; L 1.84; V 2.24; Q 2.57
L17: Y 3.3; W 1.69; R 3.44; G 2.66; N 3.18; H 3.26; K 4.17; E 2.32; F 2.05; S 2.75; M 2.64
R13: G 2.11; F 3.92; W 2.91; D 3.58; M 3.77; V 1.92; T 2.4; A 1.51; S 2.52; N 3.36
R23: W 1.61; I 1.59; G 1.85; C 1.99; M 2; F 1.63; K 2.14; L 1.83; P 2.83; H 2.37; V 2.15; D 2.61; Q 1.23
K11: W 1.71; R 2.91; T 1.56
A20: H 2.59; R 2.98; V 2.6; W 2.48; G 3.39; D 3.98; T 2.35; M 2.42; S 1.72; E 2.45
G19: P 1.46; H 2.59; Q 3.22; S 3.14; E 2.13; A 2.32; R 2.93; I 1.87; F 2.03; N 2.68; C 1.97; T 2.38; W 1.67
Y16: F 3.2; K 2.49; V 2.17; Q 2.81; M 2.26; L 2.29; H 3.32; A 3.41; P 3.04; E 1.86; G 3.03
A21: V 2.25; E 3.14; P 2.68; D 2.69; R 1.71; I 1.91; K 3.2; W 1.7
R12: F 1.68; C 2.46; G 2.75; H 2.41; N 2.4; I 2.24; Y 1.18; K 2.9; Q 2.24
